Measured values: publication PMC7333360

Legend:
Conditions in all cases: glycan lost; control: wild-type mice
[1] = TAB1 IP and immunoblot, brain tissue
[2] = breeding homozygous knock-in mice with WT
[3] = heart weight per g body weight, three months
[4] = body weight at three months, n=6 per genotype
[5] = heterozygous crosses, observation of homozygous knock-in mice

B1: TAB1 (TGF-β activated kinase-1 binding protein-1): S393A (protein)
parent chain: MAAQRRSLLQSEQQPSWTDDLPLCHLSGVGSASNRSYSADGKGTESHPPEDNWLKFRSENNCFLYGVFNGYDGNRVTNFVAQRLSAELLLGQLNTEHTEADVRRVLLQAFDVVERSFLESIDDALAEKASLQSQLPEGVPQHQLPPQYQKILERLKALEREISGGAMAVVAVLLNSKLYVANVGTNRALLCKSTVDGLQVTQLNMDHTTENEDELFRLSQLGLDAGKIKQMGVICGQESTRRIGDYKVKYGYTDIDLLSAAKSKPIIAEPEIHGAQPLDGVTGFLVLMSEGLYKALEAAHGPGQANQEIAAMIDTEFAKQTSLDAVAQAVVDRVKRIHSDTFASGGERAKFCPRHEDMTLLVRNFGYPLGEMSQPTPTPAPGGRVYPVSVPYSSAQSTSKTSVTLSLVMPSQGQMVNGSHSASTLDEATPTLTNQSPTLTLQSTNTHTQSSSSSSDGGLFRSRPAHSLPPGEDGRVEPYVDFAEFYRLWSVDHGEQSVMTAP
no change: expression_or_secretion [1] | other: fertility [2] | other: heart weight [3] | other: body weight [4] | other: mouse viability and development [5]
